This is an account of results in patent US20170362324A1 (Biogen, published 2017).

Read-outs that look alike come from different tables or passages of the source.

What is called EC50 is the concentration needed to bring the measured effect to its halfway point. For orientation: IC50 means the concentration that inhibits the measured activity by half. Low values mean greater potency, high ones weaker potency.

Assay [1] has as its target T1, human soluble αvβ5 protein (extracellular domains of human αv and β5 integrin subunits) (human, UniProt P06756 31-992; P18084 24-719).
T1 construct: also called biotin-αvβ5; hsαvβ5
Briefly: ELISA, biotin-αvβ5 on streptavidin plate, unpurified antibody. The procedure:
Solid-Phase αvβ5 Binding Assay (ELISA): A 96-well microtiter plate was precoated with streptavidin (Thermo Scientific Reacti-Bind StreptAvidin Coated High Binding Capacity plate) was used. Biotinylated soluble αvβ5 protein (2 μg/mL) in TBS with 1% BSA was added to the wells, and the plate was incubated for 1 hr at 25° C. The plate was washed with wash buffer (0.05% Tween-20 in PBS), and purified humanized ALULA antibody in TBS containing 1% BSA, 1 mM CaCl2, and 1 mM MgCl2 were added (50 μl/well). The plate was incubated for 1 hr at 25° C., washed, and then incubated for 1 hr with 50 μl/well of […] goat anti-human secondary antibody. Bound antibody was detected using 3,3′,5,5′-tetramethylbenzidine (TMB). Binding was indicated by the absorbency measured at 450 nm.
(§1) Screening of all combinations of heavy chain versions VH0, VH1, VH2, VH3, VH4, or VH5, with light chains VL0, VL1, VL2, or VL3 was carried out using unpurified proteins in conditioned cell media. The binding of each construct to biotin-conjugated human αvβ5 protein was determined using a solid-phase binding assay (ELISA) and by FACS, and the ability of each construct to block ligand binding was determined using a vitronectin cell adhesion assay (Table 1).
For orientation: An ELISA detects its analyte on a solid surface through an enzyme-linked reagent.

Assay [2] addresses T2, human αvβ5 expressed on BaF3 cells (stably transfected with human αv and β5 subunits) (human, UniProt P06756 31-1048; P18084 24-799). Briefly: cell-based or functional assay.
Assay [3] addresses T2, human αvβ5 expressed on BaF3 cells …. Put plainly: FACS on αvβ5-BaF3 cells, unpurified antibody. The procedure:
FACS Binding Assay: Cells were washed one time in PBS, and then resuspended in FACS buffer (1×PBS, 1% BSA, 1 mM CaCl₂, and 1 mM MgCl₂). 1×10⁶ cells were then incubated on ice for 1 hr in FACS buffer containing the test antibody in a total volume of 50 μl. After incubation, the cells were washed two times with ice cold FACS buffer, resuspended in 50 μl of FACS buffer containing 3 μg/ml goat anti-mouse IgG AlexaFluor488 (Jackson ImmunoResearch), and incubated on ice for 30 min. The cells were then washed twice with ice cold FACS buffer and fixed in 1% PFA overnight. Cell aggregates were removed by filtering through 40 μm filter plates (Millipore) and binding of the labeled secondary antibody was monitored by flow cytometry using a FACS Calibur (BD Biosciences).
as §1

The target is the same in assay [4]. Put plainly: cell-based or functional assay. This is another data set of the same source.
Assay [5] deals with T1, human soluble αvβ5 protein …. Briefly: ELISA, inhibition of soluble αvβ5 binding to coated human plasma vitronectin. On the procedure: Vitronectin Inhibition ELISA: 96-well microtiter plates were coated with 5 μg/ml purified human plasma vitronectin diluted in PBS (50 μl/well) at 4° C. overnight. After the coating solution was removed, the plates were blocked with 300 μl/well of 1% BSA/TBS at 25° C. for 1 hr. The plate was washed with wash buffer (0.05% Tween-20 in TBS containing 1 mM CaCl₂ and 1 mM MgCl₂), and dilutions of humanized antibodies mixed with 1 nM soluble αvβ5 protein in TBS containing 1% BSA, 1 mM CaCl₂ and 1 mM MgCl₂ were added (50 μl/well) and incubated at 25° C. for 1 hr. The plate was washed 4 times with wash buffer in an automated plate washer and incubated sequentially with 50 μl/well of the anti-beta5 monoclonal antibody 15F11 (at 0.5 ug/mL) in for 1 hr at 25° C. in TBS containing 1% BSA, 1 mM CaCl₂ and 1 mM MgCl₂. After washing the plate 4 times with wash buffer, 100 μl/well of a 1:5000 dilution of a peroxidase-conjugated goat anti-mouse antibody in TBS containing 1% BSA, 1 mM CaCl₂ and 1 mM MgCl₂ were added and incubated for 1 hr at 25° C. Bound protein was detected using the TMB substrate and indicated by the absorbency measured at 450 nm.
In parallel, the humanized ALULA antibodies were tested in two adhesion assays. One measured the ability of each antibody to inhibit the binding of soluble αvβ5 to purified human plasma vitronectin. In the other assay, the murine BaF3 cell line was stably transfected with human αv and β5 subunits, and the adhesion of these cells to vitronectin was determined using a fluorescence endpoint.

For assay [6] the target is unchanged. Put plainly: competition ELISA against 1 nM murine ALULA on coated soluble human αvβ5. The procedure: Competition ELISA: A 96-well microtiter plate was coated with 50 μl/well of 5 μg/mL soluble human αvβ5 protein at 4° C. overnight. The plate was washed with wash buffer (0.05% Tween-20 in PBS) four times in an automated plate washer. 300 μl/well of 1% BSA in PBS was added and incubated for 1 hr at 25° C. to block nonspecific binding. The plate was washed as above, and dilutions of humanized antibodies mixed with 1 nM murine ALULA in PBS containing 1% BSA, were added (50 μl/well). The plate was incubated for 1 hr at 25° C., washed, and then incubated for 40 minutes with 100 μl/well of […] goat anti-mouse antibody. Bound antibody was detected using 3,3′,5,5′-tetramethylbenzidine (TMB). Binding was indicated by the absorbency measured at 450 nm.
The binding of each construct to soluble, purified human αvβ5 protein was determined by a competition ELISA with murine ALULA (FIG. 4). […] The remaining constructs behaved similarly, with version H4/L2 showing the lowest IC50 value in this assay.

T2 sequence (P06756 31-1048 limits assumed, chain 1 of 2): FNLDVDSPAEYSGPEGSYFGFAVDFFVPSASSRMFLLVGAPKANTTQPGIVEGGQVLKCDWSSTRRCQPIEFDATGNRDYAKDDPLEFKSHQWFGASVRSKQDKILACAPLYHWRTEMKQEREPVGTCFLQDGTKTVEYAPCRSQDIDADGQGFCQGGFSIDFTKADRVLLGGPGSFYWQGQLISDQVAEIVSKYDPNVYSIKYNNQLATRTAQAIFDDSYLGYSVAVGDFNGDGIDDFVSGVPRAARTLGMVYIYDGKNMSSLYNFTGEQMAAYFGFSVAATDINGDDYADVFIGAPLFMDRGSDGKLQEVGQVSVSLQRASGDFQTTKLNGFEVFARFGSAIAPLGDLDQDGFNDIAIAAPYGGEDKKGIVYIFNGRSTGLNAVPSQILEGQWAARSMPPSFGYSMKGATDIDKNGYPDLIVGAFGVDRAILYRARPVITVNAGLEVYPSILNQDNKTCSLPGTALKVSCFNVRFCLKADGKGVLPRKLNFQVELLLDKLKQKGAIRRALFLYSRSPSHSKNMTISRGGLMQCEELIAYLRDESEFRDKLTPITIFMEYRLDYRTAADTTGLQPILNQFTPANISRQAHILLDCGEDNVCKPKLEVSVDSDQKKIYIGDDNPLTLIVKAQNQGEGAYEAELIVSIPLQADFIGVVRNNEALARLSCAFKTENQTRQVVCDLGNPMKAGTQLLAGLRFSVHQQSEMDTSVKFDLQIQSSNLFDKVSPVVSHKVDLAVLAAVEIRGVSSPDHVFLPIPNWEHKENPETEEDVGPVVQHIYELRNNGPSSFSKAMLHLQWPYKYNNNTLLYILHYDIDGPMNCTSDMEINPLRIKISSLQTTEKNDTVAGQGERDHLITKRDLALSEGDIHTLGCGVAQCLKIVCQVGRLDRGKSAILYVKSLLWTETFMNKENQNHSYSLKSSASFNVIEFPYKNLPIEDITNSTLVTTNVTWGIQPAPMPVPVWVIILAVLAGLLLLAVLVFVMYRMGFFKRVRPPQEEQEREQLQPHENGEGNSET
T2 sequence (P18084 24-799 limits assumed, chain 2 of 2): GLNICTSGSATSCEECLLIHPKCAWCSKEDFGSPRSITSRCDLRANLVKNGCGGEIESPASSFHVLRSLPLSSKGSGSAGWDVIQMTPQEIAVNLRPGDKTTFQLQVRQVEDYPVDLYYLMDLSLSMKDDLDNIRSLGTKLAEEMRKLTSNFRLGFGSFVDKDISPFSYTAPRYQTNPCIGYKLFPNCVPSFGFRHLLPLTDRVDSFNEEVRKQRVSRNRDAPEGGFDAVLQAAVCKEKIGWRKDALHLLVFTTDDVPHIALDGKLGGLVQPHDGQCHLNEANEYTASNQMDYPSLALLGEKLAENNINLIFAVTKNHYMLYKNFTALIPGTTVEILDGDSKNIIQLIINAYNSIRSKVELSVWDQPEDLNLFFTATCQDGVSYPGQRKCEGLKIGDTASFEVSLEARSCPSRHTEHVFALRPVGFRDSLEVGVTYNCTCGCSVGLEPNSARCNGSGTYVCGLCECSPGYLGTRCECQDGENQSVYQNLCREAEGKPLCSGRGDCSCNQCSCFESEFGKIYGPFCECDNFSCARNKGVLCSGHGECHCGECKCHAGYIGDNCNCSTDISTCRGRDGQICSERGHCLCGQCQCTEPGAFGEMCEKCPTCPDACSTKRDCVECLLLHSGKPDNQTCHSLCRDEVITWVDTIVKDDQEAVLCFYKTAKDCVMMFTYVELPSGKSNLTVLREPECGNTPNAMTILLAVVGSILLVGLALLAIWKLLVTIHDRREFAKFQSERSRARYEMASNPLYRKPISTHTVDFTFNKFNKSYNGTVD
T1 sequence (P06756 31-992 limits assumed, chain 1 of 2): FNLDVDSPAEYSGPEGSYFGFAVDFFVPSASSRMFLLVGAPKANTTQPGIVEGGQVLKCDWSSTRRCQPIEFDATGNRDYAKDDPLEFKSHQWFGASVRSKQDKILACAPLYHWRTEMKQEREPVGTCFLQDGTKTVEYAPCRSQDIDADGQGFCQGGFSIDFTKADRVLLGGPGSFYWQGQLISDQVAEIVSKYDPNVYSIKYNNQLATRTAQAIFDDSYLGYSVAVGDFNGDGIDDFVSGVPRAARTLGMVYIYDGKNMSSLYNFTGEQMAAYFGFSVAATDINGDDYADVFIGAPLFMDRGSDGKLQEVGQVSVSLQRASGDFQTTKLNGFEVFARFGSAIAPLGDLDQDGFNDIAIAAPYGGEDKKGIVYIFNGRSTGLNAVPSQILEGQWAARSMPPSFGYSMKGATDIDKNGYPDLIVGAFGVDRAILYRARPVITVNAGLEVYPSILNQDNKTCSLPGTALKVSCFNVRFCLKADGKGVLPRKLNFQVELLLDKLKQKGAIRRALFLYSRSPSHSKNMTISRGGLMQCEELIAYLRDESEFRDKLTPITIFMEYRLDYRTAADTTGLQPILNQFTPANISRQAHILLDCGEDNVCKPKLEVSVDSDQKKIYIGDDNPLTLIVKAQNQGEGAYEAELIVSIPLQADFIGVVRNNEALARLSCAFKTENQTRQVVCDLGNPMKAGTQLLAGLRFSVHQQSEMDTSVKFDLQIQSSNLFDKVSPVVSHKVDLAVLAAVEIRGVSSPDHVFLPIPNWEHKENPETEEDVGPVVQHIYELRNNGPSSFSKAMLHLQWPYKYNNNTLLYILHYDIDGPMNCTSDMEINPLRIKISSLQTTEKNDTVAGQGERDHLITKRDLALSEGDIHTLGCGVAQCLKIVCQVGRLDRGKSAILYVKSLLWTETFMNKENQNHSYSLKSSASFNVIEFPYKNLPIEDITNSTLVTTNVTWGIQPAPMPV
T1 sequence (P18084 24-719 limits assumed, chain 2 of 2): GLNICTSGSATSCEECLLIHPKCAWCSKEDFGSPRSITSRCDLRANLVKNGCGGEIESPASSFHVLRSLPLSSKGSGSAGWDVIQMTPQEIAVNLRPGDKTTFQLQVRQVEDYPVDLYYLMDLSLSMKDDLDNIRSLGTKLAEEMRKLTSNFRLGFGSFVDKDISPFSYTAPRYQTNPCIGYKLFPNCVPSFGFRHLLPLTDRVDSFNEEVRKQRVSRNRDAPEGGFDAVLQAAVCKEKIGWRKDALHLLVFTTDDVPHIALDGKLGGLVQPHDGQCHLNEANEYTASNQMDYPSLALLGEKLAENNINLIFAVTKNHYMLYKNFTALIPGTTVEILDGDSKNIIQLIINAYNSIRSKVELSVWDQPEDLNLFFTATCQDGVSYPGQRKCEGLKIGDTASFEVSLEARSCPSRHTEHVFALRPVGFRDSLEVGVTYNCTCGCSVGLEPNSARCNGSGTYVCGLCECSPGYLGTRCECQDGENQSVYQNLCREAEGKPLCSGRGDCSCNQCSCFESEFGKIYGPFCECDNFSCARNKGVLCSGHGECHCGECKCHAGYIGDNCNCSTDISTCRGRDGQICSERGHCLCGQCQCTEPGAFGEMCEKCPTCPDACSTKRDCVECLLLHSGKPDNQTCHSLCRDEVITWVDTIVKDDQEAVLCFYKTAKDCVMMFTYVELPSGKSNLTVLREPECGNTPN

B1: VH0/VL0 Agly-hIgG1(T299A) (antibody, V domains shown)
VH: EVQLVESGGGLVKPGGSLRLSCAASGYTFTSYWMHWVRQAPGKGLEWVGAIYPGNSDTSYNQKFKGRFTISRDDSKNTLYLQMNSLKTEDTAVYYCTTTTYGYDWFAYWGQGTLVTVSS
VL: DIQMTQSPSSVSASVGDRVTITCKSSQSVLYSSNQKNYLAWYQQKPGKAPKLLIYWASTRESGVPSRFSGSGSGTDFTLTISSLQPEDFATYYCHQYLSSLTFGQGTKVEIK
notes: also called H0/L0
For B1, the concentration giving a half-maximal response (EC50) was 1.2 nM in assay [1] and 1120 nM in assay [3]. Further, the results for the “VN adhesion inhibition, αvβ5-BaF3 (IC50, nM)” value (“VN adhesion inhibition” for short) in assay [2] and in assay [4] were 3 nM and 1770 nM, respectively. Further, the 50% inhibitory concentration (IC50) came to 11.1 nM in assay [5] and 18.3 nM in assay [6].

B2: VH4/VL1 Agly-hIgG1(T299A) (antibody, V domains shown)
VH: EVQVVQSGGGLVKPGESLRLSCKASGYTFTSYWMHWVKQAPGKGLEWVGAIYPGNSDTSYNQKFKGKFTISADTSPNTAYLQMNSLKTEDTAVYYCTTTTYGYDWFAYWGQGTLVTVSS
VL: DIQMTQSPSSLSASVGDRVTMTCKSSQSVLYSSNQKNYLAWYQQKPGKAPKLLIYWASTRESGVPDRFSGSGSGTDFTLTISSLQPEDFATYYCHQYLSSLTFGQGTKLEIK
notes: also called H4/L1
For B2, the EC50 amounted to 0.4 nM in assay [1] and 126 nM in assay [3]. Moreover, the entries for the “VN adhesion inhibition” value in assay [2] and in assay [4] were 1 nM and 59.8 nM, respectively. The 50% inhibitory concentration (IC50) in assay [5] came out at 0.9 nM; in assay [6] it was 2.2 nM.

B3: VH3/VL2 Agly-hIgG1(T299A) (antibody, V domains shown)
VH: EVQVVESGGGLVKPGGSLRLSCKASGYTFTSYWMHWVKQAPGKGLEWVGAIYPGNSDTSYNQKFKGKFTLSAVTSSNTAYLQMNSLKTEDTAVYYCTTTTYGYDWFAYWGQGTLVTVSS
VL: NIQMTQSPSSLSASVGDRVTMSCKSSQSVLYSSNQKNYLAWYQQKPGKSPKLLIYWASTRESGVPDRFTGSGSGTDFTLTISSLQPEDFATYYCHQYLSSLTFGQGTKLEIK
notes: also called H3/L2
B3: the results for the EC50 in assay [1] and in assay [3] were 0.7 nM and 3310 nM, respectively. Further, the “VN adhesion inhibition” value in assay [2] was 0.6 nM; in assay [4], 124 nM. For the same molecule, the IC50 in assay [5] stood at 2.5 nM; in assay [6], 3.3 nM.

B4: VH2/VL0 Agly-hIgG1(T299A) (antibody, V domains shown)
VH: EVQVVQSGGGLVKPGESLRLSCAASGYTFTSYWMHWVKQAPGKGLEWVGAIYPGNSDTSYNQKFKGKFTISADTSSNTAYLQMNSLKTEDTAVYYCTTTTYGYDWFAYWGQGTLVTVSS
VL: DIQMTQSPSSVSASVGDRVTITCKSSQSVLYSSNQKNYLAWYQQKPGKAPKLLIYWASTRESGVPSRFSGSGSGTDFTLTISSLQPEDFATYYCHQYLSSLTFGQGTKVEIK
notes: also called H2/L0
Turning to B4, the 50% effective concentration (EC50) in assay [1] came out at 0.5 nM; in assay [3] it was 354 nM. Further, the “VN adhesion inhibition” value in assay [2] stood at 1.3 nM; in assay [4] it was 476 nM. The figures for the IC50 in assay [5] and in assay [6] were 2.4 nM and 3.4 nM, respectively.

B5: VH2/VL2 Agly-hIgG1(T299A) (antibody, V domains shown)
VH: EVQVVQSGGGLVKPGESLRLSCAASGYTFTSYWMHWVKQAPGKGLEWVGAIYPGNSDTSYNQKFKGKFTISADTSSNTAYLQMNSLKTEDTAVYYCTTTTYGYDWFAYWGQGTLVTVSS
VL: NIQMTQSPSSLSASVGDRVTMSCKSSQSVLYSSNQKNYLAWYQQKPGKSPKLLIYWASTRESGVPDRFTGSGSGTDFTLTISSLQPEDFATYYCHQYLSSLTFGQGTKLEIK
notes: also called H2/L2 (Agly-IgG1)
On to B5, for which the values for the EC50 in assay [1] and in assay [3] were 0.7 nM and 646 nM, respectively. Besides, the “VN adhesion inhibition” value is 0.4 nM in assay [2] and 292 nM in assay [4]. In addition, the results for the IC50 in assay [5] and in assay [6] were 1.1 nM and 2.8 nM, respectively.

B6: VH4/VL0 Agly-hIgG1(T299A) (antibody, V domains shown)
VH: EVQVVQSGGGLVKPGESLRLSCKASGYTFTSYWMHWVKQAPGKGLEWVGAIYPGNSDTSYNQKFKGKFTISADTSPNTAYLQMNSLKTEDTAVYYCTTTTYGYDWFAYWGQGTLVTVSS
VL: DIQMTQSPSSVSASVGDRVTITCKSSQSVLYSSNQKNYLAWYQQKPGKAPKLLIYWASTRESGVPSRFSGSGSGTDFTLTISSLQPEDFATYYCHQYLSSLTFGQGTKVEIK
notes: also called H4/L0 (Agly-IgG1)
As for B6, the EC50 was determined as 0.3 nM in assay [1] and 158 nM in assay [3]. Also, the “VN adhesion inhibition” value in assay [2] was found to be 1.1 nM; in assay [4], 74.9 nM. The IC50 was determined as 1.7 nM in assay [5] and 2 nM in assay [6].

B7: VH0/VL1 Agly-hIgG1(T299A) (antibody, V domains shown)
VH: EVQLVESGGGLVKPGGSLRLSCAASGYTFTSYWMHWVRQAPGKGLEWVGAIYPGNSDTSYNQKFKGRFTISRDDSKNTLYLQMNSLKTEDTAVYYCTTTTYGYDWFAYWGQGTLVTVSS
VL: DIQMTQSPSSLSASVGDRVTMTCKSSQSVLYSSNQKNYLAWYQQKPGKAPKLLIYWASTRESGVPDRFSGSGSGTDFTLTISSLQPEDFATYYCHQYLSSLTFGQGTKLEIK
notes: also called H0/L1
With B7, the values for the EC50 in assay [1] and in assay [3] were 1.3 nM and 798 nM, respectively. In addition, the “VN adhesion inhibition” value in assay [2] was 2.2 nM; in assay [4], 1620 nM. In addition, the IC50 in assay [5] was determined as 11.9 nM; in assay [6], 14.2 nM.

B8: VH4/VL2 Agly-hIgG1(T299A) (antibody, V domains shown)
VH: EVQVVQSGGGLVKPGESLRLSCKASGYTFTSYWMHWVKQAPGKGLEWVGAIYPGNSDTSYNQKFKGKFTISADTSPNTAYLQMNSLKTEDTAVYYCTTTTYGYDWFAYWGQGTLVTVSS
VL: NIQMTQSPSSLSASVGDRVTMSCKSSQSVLYSSNQKNYLAWYQQKPGKSPKLLIYWASTRESGVPDRFTGSGSGTDFTLTISSLQPEDFATYYCHQYLSSLTFGQGTKLEIK
notes: also called H4/L2 (Agly-IgG1)
For B8, the EC50 in assay [1] was 0.4 nM; in assay [3] it was 156 nM. The “VN adhesion inhibition” value in assay [2] was 0.5 nM; in assay [4], 71.8 nM. The IC50 in assay [5] stood at 0.6 nM; in assay [6], 1.6 nM.
